From paper PMC10864275 (2024) come the findings set out here.

Assay [1] deals with T1, avi-β1AR-W (turkey β1-adrenergic receptor, β1AR-MetΔ5 construct with N-terminal biotinylated avi-tag) (turkey, UniProt P07700 1-367, Δ3-32 | Δ244-271 | C358A^8.59 | C116L^3.27 | R68S^1.59 | E130W^3.41 | …, biotin on the avi-tag). As to the kind of experiment: BLI; isoprenaline.
For assay [2], the target named is T1, avi-β1AR-W (turkey β1-adrenergic …). As to the kind of experiment: BLI; isoprenaline. The source holds these as a separate data set.
For assay [3], the target named is T2, avi-β1AR-E (turkey β1-adrenergic receptor, β1AR-E construct with N-terminal biotinylated avi-tag) (turkey, UniProt P07700 1-367, Δ3-32 | Δ244-271 | C358A^8.59 | C116L^3.27 | R68S^1.59 | F327A^7.37 | …, biotin on the avi-tag). As to the kind of experiment: BLI; isoprenaline.
The target of assay [4] is T1, avi-β1AR-W (turkey β1-adrenergic …). As to the kind of experiment: BLI; xamoterol. (In general: Biolayer interferometry detects binding as a change in optical thickness at a sensor tip.)
Assay [5] deals with T2, avi-β1AR-E (turkey β1-adrenergic …). As to the kind of experiment: BLI; xamoterol.
Assay [6] concerns the target T1, avi-β1AR-W (turkey β1-adrenergic …). As to the kind of experiment: BLI; salbutamol.
Assay [7] addresses T2, avi-β1AR-E (turkey β1-adrenergic …). As to the kind of experiment: BLI; salbutamol.
Assay [8] concerns the target T1, avi-β1AR-W (turkey β1-adrenergic …). As to the kind of experiment: BLI; isoprenaline. The source holds these as a separate data set.
Assay [9] shares this target. As to the kind of experiment: BLI; isoprenaline. The source holds these as a separate data set.
Assay [10] has as its target T2, avi-β1AR-E (turkey β1-adrenergic …). As to the kind of experiment: BLI; isoprenaline. This is another data set of the same source.

Substitutions are numbered along the chain they refer to. Names and notes keep the numbering of the source. Read-outs that look alike come from different tables or passages of the source.

T2 sequence (P07700 other isoform, or with tags, fused parts or gaps with the stated changes): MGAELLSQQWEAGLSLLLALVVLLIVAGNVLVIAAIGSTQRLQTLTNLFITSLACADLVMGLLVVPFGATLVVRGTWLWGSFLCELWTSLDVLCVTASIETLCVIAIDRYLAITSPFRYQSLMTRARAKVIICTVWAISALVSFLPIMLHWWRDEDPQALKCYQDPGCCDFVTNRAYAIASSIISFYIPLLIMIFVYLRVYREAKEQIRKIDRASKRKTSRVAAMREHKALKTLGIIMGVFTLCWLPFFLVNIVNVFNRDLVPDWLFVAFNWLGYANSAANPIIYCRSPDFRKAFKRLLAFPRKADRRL
T1 sequence (P07700 other isoform, or with tags, fused parts or gaps with the stated changes): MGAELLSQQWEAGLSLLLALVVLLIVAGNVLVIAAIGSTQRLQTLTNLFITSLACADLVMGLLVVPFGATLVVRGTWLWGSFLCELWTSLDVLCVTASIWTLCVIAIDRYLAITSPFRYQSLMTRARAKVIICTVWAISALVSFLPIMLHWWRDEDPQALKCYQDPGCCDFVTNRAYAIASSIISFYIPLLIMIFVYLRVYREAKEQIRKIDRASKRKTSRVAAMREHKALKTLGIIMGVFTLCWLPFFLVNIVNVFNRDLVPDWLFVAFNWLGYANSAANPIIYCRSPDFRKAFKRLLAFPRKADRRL

B1: mini-Go1 R12 (domain or fragment)
chain: IEKNLKEDGISAAKDVKLLLLGADNSGKSTIVKQMKIIHTTGIVETHFTFKNLHFRLFDVGGQRSERKKWIHCFEDVTAIIFCVDLSDYNRMHESLMLFDSICNNKFFIDTSIILFLNKKDLFGEKIKKSPLTICFPEYTGPNTYEDAAAYIQAQFESKNRSPNKEIYCHMTCATDTNNAQVIFDAVTDIIIANNLRGCGLY
B1: the Kd in [1] was found to be 7410 nM. Moreover, the koff in [2] worked out at 0.00941 s⁻¹; in [3], 0.00393 s⁻¹.

B2: mini-Gs 393 with C96A (domain or fragment)
chain: GIEKQLQKDKQVYRATHRLLLLGADNSGKSTIVKQMRIYHGGSGGSGGTSGIFETKFQVDKVNFHMFDVGGQRDERRKWIQAFNDVTAIIFVVDSSDYNRLQEALNDFKSIWNNRWLRTISVILFLNKQDLLAEKVLAGKSKIEDYFPEFARYTTPEDATPEPGEDPRVTRAKYFIRDEFLRISTASGDGRHYCYPHFTCAVDTENARRIFNDCRDIIQRMHLRQYELL
Take B2: the Kd in assay [4] was 2970 nM; in assay [5], 2360 nM; in assay [6], 1460 nM; in [7], 962 nM; in [8], 161 nM. Moreover, the koff in assay [9] came out at 0.00625 s⁻¹; in assay [10], 0.00689 s⁻¹.

B3: mini-Gs/q R70 (domain or fragment)
chain: IEKQLQKDKQVYRATHRLLLLGADNSGKSTIVKQMRIYHTSGIFETKFQVDKVNFHMFDVGGQRDERRKWIQCFNDVTAIIFVVDSSDYNRLQEALNDFKSIWNNRWLRTISVILFLNKQDLLAEKVLAGKSKIEDYFPEFARYTTPEDATPEPGEDPRVTRAKYFIRDEFLRISTASGDGRHYCYPHFTCAVDTENARRIFNDCKDIILQMNLREYNLV
B3: the Kd in assay [1] was determined as 534 nM. Also, the koff in [2] stood at 0.0067 s⁻¹; in assay [3], 0.00343 s⁻¹.

B4: mini-Gs/i R43 with C96A (domain or fragment)
chain: B3 chain with C73A, C205V, K206T, L210I, Q211K, E216D, Y217C, N218G, V220F
B4 had a Kd in assay [1] of 2530 nM. The koff in assay [2] came to 0.00623 s⁻¹; in assay [3], 0.00397 s⁻¹.

As usually defined, the Kd is the concentration at which binding is half-saturated. Usually koff stands for the first-order rate constant of dissociation.
